Data as given in US20230093399A1, “METHODS FOR GENERATING PLURIPOTENT STEM CELL-DERIVED BROWN FAT CELLS” (AgeX Therapeutics, Inc., priority 2013, published 2023).

Test system: cell line E75
Assay: Differentiation of cell line E75 in HyStem, gene expression
Format: cell-based, human
Protocol: HyStem-C (BioTime, Inc. Alameda, Calif.) (BioTime, Alameda, Calif., USA) was reconstituted following the manufacturer's instructions. Briefly, the HyStem component (thiol modified hyaluronan, 10 mg) was dissolved in 1.0 ml degassed deionized water for about 20 minutes to prepare a 1% w/v solution. The Gelin-S component (thiol modified gelatin, 10 mg) was dissolved in 1 ml degassed deionized water to prepare a 1% w/v solution, and PEGDA (PEG diacrylate, 10 mg) was dissolved in 0.5 ml degassed deionized water to prepare a 2% w/v solution. HyStem (1 ml, 1% w/v) was mixed with Gelin-S (1 ml, 1% w/v) immediately before use. Pelleted cells were resuspended in recently prepared HyStem:Gelin-S (1:1 v/v) mix described above. Upon the addition of crosslinker PEGDA, the cell suspension, at a final concentration of 2.0×10^7 cells/ml, was aliquoted at 25 μl aliquot four to five times into each well of 6 well plates (Corning 3516) after partial gelation to form attached beads. Following complete gelation (20 minutes), chondrogenic medium was added to each well (i.e about 4 ml/each well of a 6 well plate). […]
The Gelin-S® component (10 mg of thiol-modified gelatin (BioTime)) is dissolved in 1.0 ml of degassed deionized water to prepare a 1% w/v solution, and polyethylene glycol diacrylate (10 mg of PEGDA) is dissolved in 0.5 ml of degassed deionized water to prepare a 2% w/v solution. […] At the desired time point, hydrogel constructs were either fixed and processed for immunohistochemical analysis or lysed using RLT (Qiagen, CA, USA) with 1% beta-mercaptoethanol for total RNA to analyze transcript expression using quantitative real-time PCR (qRT-PCR) and/or whole-genome microarray.
Total RNA was extracted directly from cells growing in 6-well plates or 10 cm tissue culture dishes using Qiagen RNeasy mini kits according to the manufacturer's instructions. RNA concentrations were measured using a Beckman DU530 or Nanodrop spectrophotometer and RNA quality was determined by denaturing agarose gel electrophoresis or using an Agilent 2100 bioanalyzer. […] The cRNA was hybridized to Illumina BeadChips, processed, and read using a BeadStation array reader according to the manufacturer's instructions (Illumina, San Diego, Calif., USA).

B1: BMP4: Bone Morphogenetic Protein 4, TGF-beta superfamily member (protein, UniProt P12644 293-408, looked up)
Bone morphogenetic protein 4: SPKHHSQRARKKNKNCRRHSLYVDFSDVGWNDWIVAPPGYQAFYCHGDCPFPLADHLNSTNHAIVQTLVNSVNSSIPKACCVPTELSAISMLYLDEYDKVVLKNYQEMVVEGCGCR
ameloblastin (AMBN) expression (E75, 21 days HyStem, BMP4 and TGFβ3): expressed the additional marker normally associated with enamel called ameloblastin | markers normally associated with enamel, enamelin (ENAM) and amelogenin (AMELX) (E75, HyStem in the presence of BMP4 and TGFβ3): expressed the markers normally associated with enamel | adipocyte markers FABP4 and CD36 and candidate BAT cell progenitor markers such as C19orf80 (E75 passage 11, 21 days in HyStem with 10 ng/mL BMP4): relatively high levels | markers of endochondral ossification including COL2A1, ALPL, IBSP, and osteopontin (SPP1) (E75 passage 11, 21 days in HyStem with 10 ng/mL TGFβ3 together with BMP4 (10 ng/mL) or BMP2 (50 ng/mL)): relatively high levels
